How the values were obtained:
[1] = molecular target: Biotinylated 2019-nCoV (COVID-19) S1 protein (16-685), His, Avitag (SARS-CoV-2), P0DTC2; assay: SPR, Biacore T200, geomean
[2] = molecular target: SARS-CoV-2 protein used in the SPR assay of Example 2 (not named); assay: SPR

Binder | Kd [1] [nM] | pKD [2]
CIPLDWTCMIAC (modifications not checked) [BCY18707] | 2440 | –
CVNKHNPVCRFYC (modifications not checked) [BCY16911] | – | 8

From US20250325672A1
